# Measured values reported in IntAct's records for PubMed 16810321.
# B1: bZIP transcription factor 53 (Arabidopsis thaliana (Mouse-ear cress)), Q9LZP8 (parent)
# chain: MGSLQMQTSPESDNDPRYATVTDERKRKRMISNRESARRSRMRKQKQLGDLINEVTLLKNDNAKITEQVDEASKKYIEMESKNNVLRAQASELTDRLRSLNSVLEMVEEISGQALDIPEIPESMQNPWQMPCPMQPIRASADMFDC
# partner: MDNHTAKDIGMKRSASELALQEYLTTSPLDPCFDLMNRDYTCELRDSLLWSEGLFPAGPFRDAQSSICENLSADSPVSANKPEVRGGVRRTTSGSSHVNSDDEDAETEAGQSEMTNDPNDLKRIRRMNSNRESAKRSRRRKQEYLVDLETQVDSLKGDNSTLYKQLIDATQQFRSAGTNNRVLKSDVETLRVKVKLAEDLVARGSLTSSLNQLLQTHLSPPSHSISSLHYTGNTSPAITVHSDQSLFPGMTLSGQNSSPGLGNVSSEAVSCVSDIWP
# B2: bZIP transcription factor 53 (Arabidopsis thaliana (Mouse-ear cress)), Q9LZP8 (parent)
# chain: B1 chain
# partner: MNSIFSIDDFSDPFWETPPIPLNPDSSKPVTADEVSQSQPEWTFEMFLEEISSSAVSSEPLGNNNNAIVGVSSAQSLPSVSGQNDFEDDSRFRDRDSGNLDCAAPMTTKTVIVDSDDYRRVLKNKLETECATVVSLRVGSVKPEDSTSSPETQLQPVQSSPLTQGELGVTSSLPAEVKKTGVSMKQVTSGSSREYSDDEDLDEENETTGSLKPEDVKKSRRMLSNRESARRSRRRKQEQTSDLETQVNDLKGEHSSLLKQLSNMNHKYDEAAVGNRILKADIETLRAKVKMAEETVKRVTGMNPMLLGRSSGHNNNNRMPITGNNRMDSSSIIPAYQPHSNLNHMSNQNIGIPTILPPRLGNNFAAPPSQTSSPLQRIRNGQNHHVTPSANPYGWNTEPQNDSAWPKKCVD
# Variants of: B1
# Conditions: with bzip9_arath BZIP9, Q9FUD3
row,Variant,effect of a mutation on the interaction
1,MGSLQMQTSPESDNDPRYATVTDERKRKRMISNRESARRSRMRKQKQLGDLINEVTLLKNDNAKITEQVDEPSKKYIEMESKNNVLRAQASELTDRLRSLNSVLEMVEEISGQALDIPEIPESMQNPWQMPCPMQPIRASADMFDC [A72P],disrupting interaction
2,MGSLQMQTSPESDNDPRYATVTDERKRKRMISNRESARRSRMRKQKQLGDPINEVTLLKNDNAKITEQVDEASKKYIEMESKNNVLRAQASELTDRLRSLNSVLEMVEEISGQALDIPEIPESMQNPWQMPCPMQPIRASADMFDC [L51P],disrupting interaction

# Variants of: B2
# Conditions: with bzp10_arath BZIP10, O22763
row,Variant,effect of a mutation on the interaction
1,MGSLQMQTSPESDNDPRYATVTDERKRKRMISNRESARRSRMRKQKQLGDLINEVTLLKNDNAKITEQVDEPSKKYIEMESKNNVLRAQASELTDRLRSLNSVLEMVEEISGQALDIPEIPESMQNPWQMPCPMQPIRASADMFDC [A72P],disrupting interaction
2,MGSLQMQTSPESDNDPRYATVTDERKRKRMISNRESARRSRMRKQKQLGDPINEVTLLKNDNAKITEQVDEASKKYIEMESKNNVLRAQASELTDRLRSLNSVLEMVEEISGQALDIPEIPESMQNPWQMPCPMQPIRASADMFDC [L51P],disrupting interaction
